For 22 molecules, Kd, koff and kon results are on record in patent publication US20240228660A1 (IP2IPO INNOVATIONS, published 2024).

B1: 1-D5_VH-par_L1 (antibody, human IgG1, kappa, V domains shown)
VH: QQQLVESGGRLVTPGTPLTLTCAVSGFSLNNYIMGWVRQAPGKGLEYIGIISTGGSTYYASWAKGRFTISRTSTTMDLKMTSLTTEDTATYFCARGGSSAGAGFNIWGPGTLVTVSS
VL: DIQMTQSPSSLSASVGDRVTITCQASQSINSGLAWYQQKPGKAPKRLIYKASTLASGVPSRFSGSGSGTDFTLTISSLQPEDFATYYCQSYHYISANGATFGGGTKVEIKT
notes: also called 1-D5_L1 (hIgG1K)
B2: 1-D5_VH-par_L0 (antibody, human IgG1, kappa, V domains shown)
VH: B1 VH
VL: B1 VL with R46L
notes: also called 1-D5_L0 (hIgG1K)
B3: 1-D5_H2_VL-par (antibody, human IgG1, kappa, V domains shown)
VH: QQQLVESGGGVVQPGRSLRLSCAASGFSLNNYIMGWVRQAPGKGLEYIGIISTGGSTYYASWAKGRFTISRDSNTMYLQMNSLRAEDTATYFCARGGSSAGAGFNIWGQGTLVTVSS
VL: DIVMTQTPSSVSAAVGDTVTIQCQASQSINSGLAWYQQKPGQPPKRLIYKASTLASGVPSRFRGSGSGTDFTLTISDLECADAATYYCQSYHYISANGATFGGGTEVVVET
notes: also called 1-D5_H2 (hIgG1)
B4: 1-D5_H1_VL-par (antibody, human IgG1, kappa, V domains shown)
VH: QVQLVESGGGVVQPGRSLRLSCAASGFSLNNYIMGWVRQAPGKGLEWVAIISTGGSTYYASWAKGRFTISRDNSKNTLYLQMNSLRAEDTAVYYCARGGSSAGAGFNIWGQGTLVTVSS
VL: B3 VL
notes: also called 1-D5_H1 (hIgG1)
B5: 1-D5_H0_VL-par (antibody, human IgG1, kappa, V domains shown)
VH: B4 VH with S28T, L29F, N30S
VL: B3 VL
notes: also called 1-D5_H0 (hIgG1)
B6: 3-H9_VH-par_VL-par (antibody, human IgG1, kappa)
heavy chain: not shown
light chain: AIKMTQTPSSVSVAVGGTVTINCQSSQSVYSNNLLSWYQQKPGQPPKLLIYDASTLESGVPSRFKGSGSGTQFTLTISGVQCEDAATYYCQGSYYSSGWYNTFGGGTEVVVETVAAPSVFIFPPSDEQLKSGTASVVCLLNNFYPREAKVQWKVDNALQSGNSQESVTEQDSKDSTYSLSSTLTLSKADYEKHKVYACEVTHQGLSSPVTKSFNRGEC
notes: also called 3-H9_parental (hIgG1)
B7: 1-G5_H1_VL-par (antibody, human IgG1, kappa, V domains shown)
VH: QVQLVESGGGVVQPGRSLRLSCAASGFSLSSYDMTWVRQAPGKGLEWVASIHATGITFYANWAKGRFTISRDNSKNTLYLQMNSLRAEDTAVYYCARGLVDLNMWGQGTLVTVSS
VL: DPVMTQTASSVSAAVGGTVTINCQASQSVYNNNYLSWYQQKPGQPPKLLIYDASTLASGVPSRFSGNGSGTQFTLTISGVQCDDAATYYCQGSYYSGGWDTAFGGGTKVVVKT
notes: also called 1-G5_H1 (hIgG1)
B8: 1-G5_H0_VL-par rep (antibody, human IgG1, kappa, V domains shown)
VH: QVQLVESGGGVVQPGRSLRLSCAASGFTFSSYDMTWVRQAPGKGLEWVASIHATGITFYANWAKGRFTISRDNSKNTLYLQMNSLRAEDTAVYYCARGLVDLNMWGQGTLVTVSS
VL: B7 VL
notes: also called 1-G5_H0 (hIgG1)
B9: 1-G5_VH-par_VL-par (antibody, human IgG1, kappa)
heavy chain: not shown
light chain: DPVMTQTASSVSAAVGGTVTINCQASQSVYNNNYLSWYQQKPGQPPKLLIYDASTLASGVPSRFSGNGSGTQFTLTISGVQCDDAATYYCQGSYYSGGWDTAFGGGTKVVVKTVAAPSVFIFPPSDEQLKSGTASVVCLLNNFYPREAKVQWKVDNALQSGNSQESVTEQDSKDSTYSLSSTLTLSKADYEKHKVYACEVTHQGLSSPVTKSFNRGEC
notes: also called 1-G5_parental (hIgG1)
B10: 3-H9_H2_VL-par (antibody, human IgG1, kappa, V domains shown)
VH: QQLVESGGGVVQPGRSLRLSCAASGFSLSNYDMSWVRQAPGKGLEWIGSIHAIGITYYANWAEGRFTISRDKNTVYLQMNSLRAEDTATYFCARGLVDLNMWGQGTLVTVSS
VL: AIKMTQTPSSVSVAVGGTVTINCQSSQSVYSNNLLSWYQQKPGQPPKLLIYDASTLESGVPSRFKGSGSGTQFTLTISGVQCEDAATYYCQGSYYSSGWYNTFGGGTEVVVET
notes: also called 3-H9_H2 (hIgG1)
B11: 1-G5_H2_VL-par (antibody, human IgG1, kappa, V domains shown)
VH: B10 VH with N30S, S34T, I53T, Y57F, E63K, I68T, R70K, K72S
VL: B7 VL
notes: also called 1-G5_H2 (hIgG1)
B12: 3-H9_H1_VL-par (antibody, human IgG1, kappa, V domains shown)
VH: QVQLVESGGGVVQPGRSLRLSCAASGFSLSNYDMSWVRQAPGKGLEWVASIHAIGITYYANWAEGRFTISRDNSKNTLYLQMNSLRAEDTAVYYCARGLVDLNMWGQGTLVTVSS
VL: B10 VL
notes: also called 3-H9_H1 (hIgG1)
B13: 3-H9_H0_VL-par (antibody, human IgG1, kappa, V domains shown)
VH: B8 VH with S31N, T35S, T54I, F58Y, K64E
VL: B10 VL
notes: also called 3-H9_H0 (hIgG1)
B14: 1-G5_VH-par_L1 (antibody, human IgG1, kappa)
heavy chain: not shown
light chain: DPQMTQSPSSLSASVGDRVTITCQASQSVYNNNYLSWYQQKPGKAPKLLIYDASTLASGVPSRFSGSGSGTDFTLTISSLQPEDFATYYCQGSYYSGGWDTAFGGGTKVEIKTVAAPSVFIFPPSDEQLKSGTASVVCLLNNFYPREAKVQWKVDNALQSGNSQESVTEQDSKDSTYSLSSTLTLSKADYEKHKVYACEVTHQGLSSPVTKSFNRGEC
notes: also called 1-G5_L1 (hIgG1K)
B15: 1-G5_VH-par_L0 (antibody, human IgG1, kappa)
heavy chain: not shown
light chain: B14 light chain with P2I
notes: also called 1-G5_L0 (hIgG1K)
B16: 3-H9_VH-par_L0 (antibody, human IgG1, kappa, V domains shown)
VH: SQSLEESGGRLVTPGTPLTLTCSVSGFSLSNYDMSWVRQAPGKGLEWIGSIHAIGITYYANWAEGRFTISKTSTTVDLKMTSLTTEDTATYFCARGLVDLNMWGPGTLVTVSS
VL: DIQMTQSPSSLSASVGDRVTITCQSSQSVYSNNLLSWYQQKPGKAPKLLIYDASTLESGVPSRFSGSGSGTDFTLTISSLQPEDFATYYCQGSYYSSGWYNTFGGGTKVEIKT
notes: also called 3-H9_L0 (hIgG1K)
B17: 4-H3_H6_L0 (antibody, human IgG1, kappa)
heavy: not shown
light: DIQMTQSPSSLSASVGDRVTITCLASEDIASGISWYQQKPGKAPKLLIYGASNLESGVPSRFSGSGSGTDFTLTISSLQPEDFATYYCLGGYSFSSNGLTFGGGTKVEIKTVAAPSVFIFPPSDEQLKSGTASVVCLLNNFYPREAKVQWKVDNALQSGNSQESVTEQDSKDSTYSLSSTLTLSKADYEKHKVYACEVTHQGLSSPVTKSFNRGEC
notes: humanised, human IgG1 kappa
B18: 4-H3_H6_L1 (antibody, human IgG1, kappa)
heavy: not shown
light: B17 light with I2Y, F71Y
notes: humanised, human IgG1 kappa
B19: 1-G5_H1_L0 (antibody, human IgG1, kappa)
heavy: not shown
light: B14 light chain with P2I
notes: humanised, human IgG1 kappa
B20: 4-H3_H0_L0 (antibody, human IgG1, kappa, V domains shown)
VH: QVQLVESGGGVVQPGRSLRLSCAASGFTFSSNAMNWVRQAPGKGLEWVAGIYGHDTSYYAAWAKGRFTISRDNSKNTLYLQMNSLRAEDTAVYYCARGFIYFDIWGQGTLVTVSS
VL: DIQMTQSPSSLSASVGDRVTITCLASEDIASGISWYQQKPGKAPKLLIYGASNLESGVPSRFSGSGSGTDFTLTISSLQPEDFATYYCLGGYSFSSNGLTFGGGTKVEIKT
notes: humanised, human IgG1 kappa
B21: 4-H3_H7_L1 (antibody, human IgG1, kappa, V domains shown)
VH: B20 VH with F27I, T28D, F29L, S30T, V48I, A49G, L78V, V92T, Y94F
VL: B20 VL with I2Y, F71Y
notes: humanised, human IgG1 kappa
B22: 4-H3_H7_L0 rep (antibody, human IgG1, kappa, V domains shown)
VH: B20 VH with F27I, T28D, F29L, S30T, V48I, A49G, L78V, V92T, Y94F
VL: B20 VL
notes: humanised, human IgG1 kappa

Positions count from the first letter of the chain named.

The first assay has as its target T1, human full-length VWF (human, UniProt P04275 764-2813). The experiment in a line: SPR, Biacore T200, antibody captured on Protein A, full-length VWF as analyte, single-cycle kinetics.
A word on the Kd: it is a measure of binding affinity in units of concentration. The koff is a measure of how fast the partners let go of each other. A lower koff goes with slow dissociation. The kon is the second-order rate constant of association. B1 registered a Kd of 82.4 pM, a koff of 7.91e-06 s⁻¹ and a kon of 96000 M⁻¹ s⁻¹.

The molecule B2 yielded a Kd of 50 pM, a koff of 6.59e-06 s⁻¹ and a kon of 132000 M⁻¹ s⁻¹.

Turning to B3, binding was put at a Kd of 31.2 pM, the koff was determined as 4.2e-06 s⁻¹ and the kon was found to be 135000 M⁻¹ s⁻¹.

In turn, B4 returned a Kd of 0.304 pM, a koff of 2.37e-08 s⁻¹ and a kon of 78000 M⁻¹ s⁻¹.

Take B5: the equilibrium dissociation constant (Kd) is 0.031 pM, the koff was 2.38e-09 s⁻¹ and the on-rate constant (kon) was 77000 M⁻¹ s⁻¹.

Regarding B6, binding was put at a Kd of 43.4 pM.

The target of a further assay is T1, human full-length VWF. Described as above. This is another data set of the same source.
Method: (§1) Antibodies were captured on Protein A sensor chip. The system was purged using running buffer (10 mM HEPES pH 7.4, 300 mM NaCl, 3 mM EDTA, 0.05% P20) and a series S Protein A chip was docked in the Biacore T200. The surface was conditioned with 10 mM glycine-HCl pH 1.5 regeneration solution (3 injections). Each antibody was diluted to ˜0.8 μg/ml in running buffer to capture ˜350 RU on flow cells 2, 3 and 4 (flow cell 1 used as in-line reference cell). Single-cycle kinetic analysis of human full-length VWF binding to antibodies was performed using the following parameters:
As for B7, the dissociation constant (Kd) was 6.77 pM, the koff was 1.66e-07 s⁻¹ and the kon was 24600 M⁻¹ s⁻¹.

The molecule B8 had a Kd of 8.52 pM, a koff of 7.2e-07 s⁻¹ and a kon of 84500 M⁻¹ s⁻¹.

Consider B9, for which the Kd came to 0.475 pM.

In turn, B10 yielded a Kd of 12.4 pM, a koff of 1.14e-06 s⁻¹ and a kon of 92000 M⁻¹ s⁻¹.

The molecule B11 returned a Kd of 14.4 pM, a koff of 3.78e-07 s⁻¹ and a kon of 26200 M⁻¹ s⁻¹.

In the case of B12, binding was put at a Kd of 3.13 pM, the koff turned out to be 7.18e-08 s⁻¹ and the kon stood at 22900 M⁻¹ s⁻¹.

In turn, B13 displayed a Kd of 4.09 pM, a koff of 3.59e-07 s⁻¹ and a kon of 87700 M⁻¹ s⁻¹.

B14 registered a Kd of 12 pM, a koff of 1.28e-06 s⁻¹ and a kon of 107000 M⁻¹ s⁻¹.

In turn, B15 yielded a Kd of 3.58 pM, a koff of 3.8e-07 s⁻¹ and a kon of 106000 M⁻¹ s⁻¹.

In turn, B16 gave a Kd of 111 pM, a dissociation rate constant (koff) of 2.12e-05 s⁻¹ and a kon of 192000 M⁻¹ s⁻¹.

For a further assay, the target named is T1, human full-length VWF. The experiment in a line: SPR Biacore T200, antibody captured on Protein A chip, full-length VWF as analyte, single-cycle kinetics. On the technique in general: SPR reads the build-up and loss of mass on a sensor chip optically.
Method: as §1
As to B17, the Kd was < 1000 pM.

On to B18, for which the Kd is < 1000 pM.

In the case of B19, the Kd is < 1000 pM.

Turning to B20, the Kd is < 1000 pM.

Take B21: the Kd was < 1000 pM.

B22: the Kd was < 1000 pM.

The target in the next assay is T1, human full-length VWF. The experiment in a line: SPR, Biacore T200, antibody captured on Protein A, full-length VWF as analyte, single-cycle kinetics. The source holds these as a separate data set.
B17 returned a Kd of 0.649 pM, a koff of 2.67e-08 s⁻¹ and a kon of 41200 M⁻¹ s⁻¹.

Molecule B18 displayed a Kd of 1.73 pM, a koff of 1.14e-07 s⁻¹ and a kon of 65700 M⁻¹ s⁻¹.

Turning to B21, the Kd was found to be 5.84 pM, the koff turned out to be 3.82e-07 s⁻¹ and the kon was 65400 M⁻¹ s⁻¹.

For the molecule B22, the Kd came out at 1.61 pM, the koff amounted to 1.73e-07 s⁻¹ and the kon is 108000 M⁻¹ s⁻¹.
